Experimental data published in the supplement of paper PMC5998384.

Assays:
HeLa Kyoto [1] = test: thermal stability score vs G1/S (z-score of summed log2 fold changes over temperatures); higher = more thermally stable than in G1/S
HeLa Kyoto [2] = test: solubility in G1/S (NP-40 vs SDS abundance) (log2 ratio); higher = more soluble; settings: cell cycle stage: G1/S
HeLa Kyoto [3] = test: solubility change mitosis vs G1/S (difference of NP-40 vs SDS log2 ratios) (log2 ratio difference); higher = more soluble in mitosis
HeLa Kyoto [4] = test: melting temperature (median over replicates), in situ; higher = more thermally stable
[5] = cell cycle stage: early G1 (4.5 h after nocodazole release)
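Throughout, for melting temperature (median over replicates), in situ: HeLa Kyoto cells synchronized by double thymidine or nocodazole block, proteins quantified by TMT10plex mass spectrometry, three independent biological replicates.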
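Throughout, for solubility change mitosis vs G1/S (difference of NP-40 vs SDS log2 ratios): synchronized HeLa Kyoto cells (double thymidine block for G1/S, nocodazole release for mitosis), protein amounts in NP-40 versus SDS lysates quantified by mass spectrometry, three biological replicates.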
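Throughout, for solubility in G1/S (NP-40 vs SDS abundance): HeLa Kyoto cells arrested at G1/S by double thymidine block, proteins quantified by TMT10plex mass spectrometry in mild NP-40 versus SDS extracts, three biological replicates.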
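Throughout, for thermal stability score vs G1/S (z-score of summed log2 fold changes over temperatures): synchronized HeLa Kyoto cells, proteins quantified by TMT10plex mass spectrometry, three biological replicates, mitosis taken 0.5 h after nocodazole release, G1/S directly after double thymidine block.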

Chain of TAF6 (chain, as listed by the source): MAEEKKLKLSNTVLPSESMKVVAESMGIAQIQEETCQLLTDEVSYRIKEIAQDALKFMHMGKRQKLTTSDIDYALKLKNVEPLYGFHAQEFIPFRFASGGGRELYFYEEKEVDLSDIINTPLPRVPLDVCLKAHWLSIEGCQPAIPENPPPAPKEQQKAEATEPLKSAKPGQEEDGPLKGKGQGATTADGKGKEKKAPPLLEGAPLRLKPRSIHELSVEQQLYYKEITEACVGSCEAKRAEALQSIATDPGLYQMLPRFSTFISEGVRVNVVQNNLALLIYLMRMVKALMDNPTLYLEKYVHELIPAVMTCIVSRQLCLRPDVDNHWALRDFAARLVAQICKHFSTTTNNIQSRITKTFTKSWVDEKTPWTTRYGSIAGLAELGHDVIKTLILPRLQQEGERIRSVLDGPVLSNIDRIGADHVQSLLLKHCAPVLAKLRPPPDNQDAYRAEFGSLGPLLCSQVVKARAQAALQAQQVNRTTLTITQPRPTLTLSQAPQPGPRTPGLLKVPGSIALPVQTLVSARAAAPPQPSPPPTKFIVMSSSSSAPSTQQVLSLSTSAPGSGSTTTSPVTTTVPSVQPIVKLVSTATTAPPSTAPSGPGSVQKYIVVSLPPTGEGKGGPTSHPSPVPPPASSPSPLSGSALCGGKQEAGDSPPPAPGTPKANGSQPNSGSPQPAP
Chain of STAT2 (chain, as listed by the source): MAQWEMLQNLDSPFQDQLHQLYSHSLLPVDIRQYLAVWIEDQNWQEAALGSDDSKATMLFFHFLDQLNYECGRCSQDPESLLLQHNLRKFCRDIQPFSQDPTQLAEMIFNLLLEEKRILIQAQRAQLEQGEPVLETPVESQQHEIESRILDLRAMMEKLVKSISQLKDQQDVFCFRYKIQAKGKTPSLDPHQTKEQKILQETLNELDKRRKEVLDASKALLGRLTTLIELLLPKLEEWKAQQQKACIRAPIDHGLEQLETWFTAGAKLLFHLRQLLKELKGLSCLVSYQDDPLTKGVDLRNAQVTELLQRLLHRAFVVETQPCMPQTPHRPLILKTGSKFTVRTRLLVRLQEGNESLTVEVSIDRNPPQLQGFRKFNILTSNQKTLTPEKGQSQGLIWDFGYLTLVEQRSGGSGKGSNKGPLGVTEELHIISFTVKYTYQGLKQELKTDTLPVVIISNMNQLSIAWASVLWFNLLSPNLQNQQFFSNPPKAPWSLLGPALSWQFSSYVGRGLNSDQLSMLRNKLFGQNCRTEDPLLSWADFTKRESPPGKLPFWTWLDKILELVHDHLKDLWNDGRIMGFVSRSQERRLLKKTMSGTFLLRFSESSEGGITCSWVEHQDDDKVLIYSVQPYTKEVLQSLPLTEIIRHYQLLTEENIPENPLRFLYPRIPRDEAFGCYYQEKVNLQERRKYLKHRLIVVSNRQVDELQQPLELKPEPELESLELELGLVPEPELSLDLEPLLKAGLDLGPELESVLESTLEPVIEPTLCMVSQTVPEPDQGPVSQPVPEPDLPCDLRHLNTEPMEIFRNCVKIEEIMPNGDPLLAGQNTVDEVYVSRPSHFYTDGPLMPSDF

Substance	thermal stability score (HeLa Kyoto [1]; [5])	thermal stability score (HeLa Kyoto [1]; cell cycle stage: mitosis)	solubility in G1/S (log2) (HeLa Kyoto [2])	solubility change mitosis (log2) (HeLa Kyoto [3])	melting temperature (HeLa Kyoto [4]; cell cycle stage: G1/S)	melting temperature (HeLa Kyoto [4]; cell cycle stage: mitosis)
MAAVAAEAAATAASPGEGGAGEAEPEMEPIPGSEAGTDPLPVTATEASVPDGETDGQQSAPQADEPPLPPPPPPPGELARSPEAVGPELEAEEKLSVRVAESAAAAPQGGPELPPSPASPPEQPPAPEEREEPPLPQPVAPALVPPAGGDSTVSQLIPGSEVRVTLDHIIEDALVVSFRFGEKLFSGVLMDLSKRFGPHGIPVTVFPKREYKDKPEAMPLQSNTFQEGTEVKCEANGAVPDDPSPVPHPELSLAESLWTSKPPPLFHEGAPYPPPLFIRDTYNQSIPQPPPRKIKRPKRKMYREEPTSIMNAIKLRPRQVLCDKCKNSVVAEKKEIRKGSSATDSSKYEDKKRRNESVTTVNKKLKTDHKVDGKNQNESQKRNAVVKVSNIAHSRGRVVKVSAQANTSKAQLSTKKVLQSKNMDHAKAREVLKIAKEKAQKKQNETSTSKNAHSKVHFTRRYQNPSSGSLPPRVRLKPQRYRNEENDSSLKTGLEKMRSGKMAPKPQSRCTSTRSAGEAPSENQSPSKGPEEASSEVQDTNEVHVPGDQDEPQTLGKKGSKNNISVYMTLNQKKSDSSSASVCSIDSTDDLKSSNSECSSSESFDFPPGSMHAPSTSSTSSSSKEEKKLSNSLKMKVFSKNVSKCVTPDGRTICVGDIVWAKIYGFPWWPARILTITVSRKDNGLLVRQEARISWFGSPTTSFLALSQLSPFLENFQSRFNKKRKGLYRKAITEAAKAAKQLTPEVRALLTQFET [PWWP2A]	1.31	1.07	-0.7	0.43	–	–
MAAVDSDVESLPRGGFRCCLCHVTTANRPSLDAHLGGRKHRHLVELRAARKAQGLRSVFVSGFPRDVDSAQLSEYFLAFGPVASVVMDKDKGVFAIVEMGDVGAREAVLSQSQHSLGGHRLRVRPREQKEFQSPASKSPKGAAPDSHQLAKALAEAADVGAQMIKLVGLRELSEAERQLRSLVVALMQEVFTEFFPGCVVHPFGSSINSFDVHGCDLDLFLDLGDLEEPQPVPKAPESPSLDSALASPLDPQALACTPASPPDSQPPASPQDSEALDFETPSSSLAPQTPDSALASETLASPQSLPPASPLLEDREEGDLGKASELAETPKEEKAEGAAMLELVGSILRGCVPGVYRVQTVPSARRPVVKFCHRPSGLHGDVSLSNRLALHNSRFLSLCSELDGRVRPLVYTLRCWAQGRGLSGSGPLLSNYALTLLVIYFLQTRDPPVLPTVSQLTQKAGEGEQVEVDGWDCSFPRDASRLEPSINVEPLSSLLAQFFSCVSCWDLRGSLLSLREGQALPVAGGLPSNLWEGLRLGPLNLQDPFDLSHNVAANVTSRVAGRLQNCCRAAANYCRSLQYQRRSSRGRDWGLLPLLQPSSPSSLLSATPIPLPLAPFTQLTAALVQVFREALGCHIEQATKRTRSEGGGTGESSQGGTSKRLKVDGQKNCCEEGKEEQQGCAGDGGEDRVEEMVIEVGEMVQDWAMQSPGQPGDLPLTTGKHGAPGEEGQPSHAALAERGPKGHEAAQEWSQGEAGKGASLPSSASWRCALWHRVWQGRRRARRRLQQQTKEGAGGGAGTRAGWLATEAQVTQELKGLSGGEERPETEPLLSFVASVSPADRMLTVTPLQDPQGLFPDLHHFLQVFLPQAIRHLK [TUT1]	0.3	1.52	-0.00805	0.00387	–	–
MAAVELEWIPETLYNTAISAVVDNYIRSRRDIRSLPENIQFDVYYKLYQQGRLCQLGSEFCELEVFAKVLRALDKRHLLHHCFQALMDHGVKVASVLAYSFSRRCSYIAESDAAVKEKAIQVGFVLGGFLSDAGWYSDAEKVFLSCLQLCTLHDEMLHWFRAVECCVRLLHVRNGNCKYHLGEETFKLAQTYMDKLSKHGQQANKAALYGELCALLFAKSHYDEAYKWCIEAMKEITAGLPVKVVVDVLRQASKACVVKREFKKAEQLIKHAVYLARDHFGSKHPKYSDTLLDYGFYLLNVDNICQSVAIYQAALDIRQSVFGGKNIHVATAHEDLAYSSYVHQYSSGKFDNALFHAERAIGIITHILPEDHLLLASSKRVKALILEEIAIDCHNKETEQRLLQEAHDLHLSSLQLAKKAFGEFNVQTAKHYGNLGRLYQSMRKFKEAEEMHIKAIQIKEQLLGQEDYEVALSVGHLASLYNYDMNQYENAEKLYLRSIAIGKKLFGEGYSGLEYDYRGLIKLYNSIGNYEKVFEYHNVLSNWNRLRDRQYSVTDALEDVSTSPQSTEEVVQSFLISQNVEGPSC [APPBP2]	-0.105	-0.0209	-0.17	-0.168	–	–
MAGAAEDARALFRAGVCAALEAWPALQIAVENGFGGVHSQEKAKWLGGAVEDYFMRNADLELDEVEDFLGELLTNEFDTVVEDGSLPQVSQQLQTMFHHFQRGDGAALREMASCITQRKCKVTATALKTARETDEDEDDVDSVEEMEVTATNDGAATDGVCPQPEPSDPDAQTIKEEDIVEDGWTIVRRKK [TSR2]	-0.881	0.659	0.00907	0.0427	–	–
MVNPGSSSQPPPVTAGSLSWKRCAGCGGKIADRFLLYAMDSYWHSRCLKCSCCQAQLGDIGTSCYTKSGMILCRNDYIRLFGNSGACSACGQSIPASELVMRAQGNVYHLKCFTCSTCRNRLVPGDRFHYINGSLFCEHDRPTALINGHLNSLQSNPLLPDQKVC [LMO4]	–	–	-0.938	-0.0181	52.8 °C	–
MWHSVGLTLLVFVATLLIVLLLMVCGWYFVWHLFLSKFKFLRELVGDTGSQEGDHEPSGSETEEDTSSSPHRIRSARQRRAPADEGHRPLT [SMIM13]	–	–	-0.0724	-0.138	55.5 °C	–
STAT2	–	–	-0.0132	-0.0626	49.1 °C	50.9 °C
TAF6	–	–	0.14	0.046	49.1 °C	49.6 °C
TATDN3	–	–	0.608	-0.0652	56.5 °C	56.3 °C
ZNF318	–	–	-0.136	-0.0151	46.2 °C	49.2 °C
